± gives the uncertainty stated by the source.
Assay: self-splicing fitness, log relative to wild type (ln ratio); higher = more splicing; Tetrahymena group I intron in knt gene, E. coli kanamycin selection, DiMSum; sequences stand for … in CUCUCU…GGAGGGAAAAGUUAUCAGGCAUGCACCUGGUAGCUAGUCUUUAAACCAAUAGAUUGCAUCGGUUUAAAAGGCAAGACCGUCAAAUUGCGGGAAAGGGGUCAACAGCCGUUCAGUACCAAGUCUCAGGGGAAACUUUGAGAUGGCCUUGCAAAGGGUAUGGUAAUAAGCUGACGGACAUGGUCCUAACCACGCAGCCAAGUCCUAAGUCAACAGAUCUUCUGUUGAUAUGGAUGCAGUUCACAGACUAAAUGUCGGUCGGGGAAGAUGUAUUCUUCUCAUAAGAUAUAGUCGGACCUCUCCUUAAUGGGAGCUAGCGGAUGAAGUGAUGCAACACUGGAGCCGCUGGGAACUAAUUUGUAUGCGAAAGUAUAUUGAUUAGUUUUGGAGUACUCGUGGUCG
Method in brief: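 Fitness was computed with DiMSum as the error-weighted combination of replicate fold changes, kanamycin versus none, each normalised to wild type. The library randomised all eight intron nucleotides of the P1ex region, with the intron placed in the knt kanamycin-resistance gene on pET-22b(+) in E. coli BL21(DE3). Six replicate transformations were grown overnight at 37°C or 30°C on LB agar with or without 25 μg/mL kanamycin, plus 100 μg/mL carbenicillin, 50 μM IPTG and 0.2% rhamnose. Pooled colonies were amplicon-sequenced on an Illumina HiSeq 2500.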

| Sequence | self-splicing fitness (ln) (30 °C) | self-splicing fitness (ln) (37 °C) |
| --- | --- | --- |
| GAAGAGCAAUAUUACGUUGG | -3.53 ± 0.18 | -2.34 ± 0.16 |
| UCCGAGCAAUAUUACGUCCU | -2.6 ± 0.28 | – |
| AGGGAGCAAUAUUACGAUUU | -2.26 ± 0.18 | -1.92 ± 0.29 |
| AAGCAGCAAUAUUACGCAGU | -3.36 ± 0.23 | -1.52 ± 0.13 |
| CCGCAGCAAUAUUACGGAAC | -3.52 ± 0.41 | -3.41 ± 0.29 |
| CUGAAGCAAUAUUACGGUUG | -0.0856 ± 0.068 | 0.139 ± 0.096 |
| GCUGAGCAAUAUUACGGGAC | -1.25 ± 0.13 | -2.16 ± 0.22 |
| UUAAAGCAAUAUUACGCCCG | -0.0363 ± 0.09 | 0.273 ± 0.11 |
| CUUCAGCAAUAUUACGGGGA | -3.36 ± 0.27 | -1.65 ± 0.18 |
| CGAAAGCAAUAUUACGGCGG | -0.187 ± 0.067 | 0.456 ± 0.093 |
| GCAGAGCAAUAUUACGCGUG | -2.7 ± 0.24 | -3.6 ± 0.37 |
| AUCAAGCAAUAUUACGUGAA | -1.73 ± 0.071 | -1.45 ± 0.1 |
| AAAGAGCAAUAUUACGCAAU | -3.59 ± 0.21 | -1.65 ± 0.16 |
| AUAAAGCAAUAUUACGGACA | -0.148 ± 0.094 | 0.131 ± 0.13 |
| AUGCAGCAAUAUUACGGAAC | – | -2.76 ± 0.36 |
| CUAGAGCAAUAUUACGGUUA | -3.66 ± 0.24 | -3.14 ± 0.4 |
| GCCCAGCAAUAUUACGAGCG | -0.449 ± 0.067 | -1.17 ± 0.1 |
| AAUAAGCAAUAUUACGCUGU | -2.61 ± 0.23 | -1.92 ± 0.22 |
| AGGGAGCAAUAUUACGGUUC | – | -1.7 ± 0.42 |

| Sequence | self-splicing fitness (ln) (30 °C) | self-splicing fitness (ln) (37 °C) |
| --- | --- | --- |
| ACAGAGCAAUAUUACGUCUU | -1.48 ± 0.18 | -1.98 ± 0.18 |
| CAGAAGCAAUAUUACGCUGA | -2.87 ± 0.18 | -1.98 ± 0.15 |
| UGUGAGCAAUAUUACGAGUU | -2.72 ± 0.22 | -1.97 ± 0.27 |
| GAGUAGCAAUAUUACGCCCU | -0.812 ± 0.24 | -0.124 ± 0.23 |
| AAACAGCAAUAUUACGCGAG | -1.6 ± 0.076 | -1.12 ± 0.096 |
| GGCAAGCAAUAUUACGUAAC | -0.613 ± 0.064 | -0.533 ± 0.089 |
| GCUAAGCAAUAUUACGUAUG | -2.2 ± 0.1 | -1.12 ± 0.14 |
| ACUCAGCAAUAUUACGAAUU | -0.96 ± 0.089 | -0.208 ± 0.085 |
| AUGAAGCAAUAUUACGCCCA | 0.226 ± 0.22 | 0.0745 ± 0.25 |
| CUGUAGCAAUAUUACGGUCC | -2.27 ± 0.25 | -2.71 ± 0.44 |
| ACUUAGCAAUAUUACGGAUG | -1.73 ± 0.13 | -1.53 ± 0.2 |
| GAAUAGCAAUAUUACGAGAC | – | -0.147 ± 0.18 |
| GGUGAGCAAUAUUACGUUAA | -1.89 ± 0.18 | -1.09 ± 0.24 |
| CACAAGCAAUAUUACGCUCU | -3.04 ± 0.24 | -1.38 ± 0.17 |
| AUAGAGCAAUAUUACGGUAC | -3.74 ± 0.32 | -1.55 ± 0.23 |
| GCGCAGCAAUAUUACGCACC | -3.7 ± 0.2 | -2.41 ± 0.25 |
| AGUCAGCAAUAUUACGCCCG | -0.925 ± 0.12 | -1.52 ± 0.17 |
| GGUCAGCAAUAUUACGAGAA | -1.23 ± 0.47 | -2.01 ± 0.38 |
| AACUAGCAAUAUUACGGGUA | -0.761 ± 0.072 | -0.0817 ± 0.07 |
